In patent publication US9371374:
Read-outs that look alike come from different tables or passages of the source.

T1: HCV Core1-169 (HCV-1), P26664
T1 chain: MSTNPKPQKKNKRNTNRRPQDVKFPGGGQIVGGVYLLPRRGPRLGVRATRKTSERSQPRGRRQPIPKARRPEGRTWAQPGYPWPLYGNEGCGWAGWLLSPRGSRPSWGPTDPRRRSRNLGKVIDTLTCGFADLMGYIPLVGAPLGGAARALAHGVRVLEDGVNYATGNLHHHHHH


Experiments:
[1] = molecular target: biotinylated HCV core peptide 134-154 (Peptide 1) (HCV-1); experiment: EIA, captured mAb
[2] = molecular target: biotinylated HCV core peptide 141-161 (Peptide 2) (HCV-1); experiment: EIA, captured mAb
[3] = molecular target: biotinylated HCV core peptide 151-171 (Peptide 3) (HCV-1); experiment: EIA, captured mAb
HCV Core1-169 (HCV-1) [4] = molecular target: HCV Core1-169 (HCV-1) (UniProt P26664); experiment: SPR sandwich, C11-3 capture
HCV Core1-169 (HCV-1) [5] = molecular target: HCV Core1-169 (HCV-1) (UniProt P26664); experiment: SPR sandwich, C11-7 capture
HCV Core1-169 (HCV-1) [6] = molecular target: HCV Core1-169 (HCV-1) (UniProt P26664); experiment: SPR sandwich, C11-9 capture
HCV Core1-169 (HCV-1) [7] = molecular target: HCV Core1-169 (HCV-1) (UniProt P26664); experiment: SPR sandwich, C11-14 capture
HCV Core1-169 (HCV-1) [8] = molecular target: HCV Core1-169 (HCV-1) (UniProt P26664); experiment: EIA, coated core1-169
[9] = molecular target: biotinylated HCV core peptide 134-154 (Peptide 1) (HCV-1); experiment: EIA, captured mAb; remark: listed apart in the source
[10] = molecular target: biotinylated HCV core peptide 141-161 (Peptide 2) (HCV-1); experiment: EIA, captured mAb; remark: listed apart in the source
[11] = molecular target: biotinylated HCV core peptide 151-171 (Peptide 3) (HCV-1); experiment: EIA, captured mAb; remark: listed apart in the source
[12] = molecular target: T1, HCV Core1-169 (HCV-1), P26664; experiment: SPR sandwich, C11-3 capture; details: remark: other sources report otherwise
[13] = molecular target: T1, HCV Core1-169 (HCV-1), P26664; experiment: SPR sandwich, C11-7 capture; details: remark: other sources report otherwise
[14] = molecular target: T1, HCV Core1-169 (HCV-1), P26664; experiment: SPR sandwich, C11-9 capture; details: remark: other sources report otherwise
[15] = molecular target: T1, HCV Core1-169 (HCV-1), P26664; experiment: SPR sandwich, C11-14 capture; details: remark: other sources report otherwise

Binder	Reactivity (OD492) [1] [OD]	Reactivity (OD492) [2] [OD]	Reactivity (OD492) [3] [OD]	expected % binding (HCV Core1-169 (HCV-1) [4]) [%]	expected % binding (HCV Core1-169 (HCV-1) [5]) [%]	expected % binding (HCV Core1-169 (HCV-1) [6]) [%]	expected % binding (HCV Core1-169 (HCV-1) [7]) [%]	OD (A492) (HCV Core1-169 (HCV-1) [8]) [OD]	Reactivity (OD492) [9] [OD]	Reactivity (OD492) [10] [OD]	Reactivity (OD492) [11] [OD]	expected % binding [12] [%]	expected % binding [13] [%]	expected % binding [14] [%]	expected % binding [15] [%]
HCV 208A-967 (antibody, V domains shown) VH: QVQLEESGPGLVAPSQSLSITCTVSGFSLTSYGVHWVRQPPGKGLEWLGVIWAVGSINYNSALMSRLSISKDNSKSQVFLKMNSLRTDDTAMYYCARDRTTATPFFDYWGQGTTLTVSS VL: DIVLTQSPASLAGSLGKRAPISCKASESVNFFGTNLIHWYQQKPGQPPKLLIYHASNLKTGVPARFRGRGSKTNFPLPIDPVEENDVAIYYCLQNRKIPLTFGVGTKLELKR	0.52	0.73	0.18	< 1	< 1	< 1	< 1	–	–	–	–	–	–	–	–
HCV 208B-353 (antibody, V domains shown) VH: EVQLVESGGDLVKPGGSLKLSCAASGFTFNHYGMSWVRQPPDKRLEWVATISSGGGYTYYPDSVKGRFTISRDNAKDTLSLQMSSLRSGDTAVYYCASLYGSLFAYWGQGTLVTVSA VL: DIVMTQSQKFMSTTVGDRVRVTCKASQNVGTAVAWYQQKPGQSPKLLIYSASNRYTGVPDRFTGSGSGTDFTLTITNMQSEDLADYFCQQYSTYPLTFGSGAKLEIKR	–	–	–	1.9	2.6	< 1	2.4	0.3	0.07	2.47	0.07	–	–	–	–
HCV 208B-174 (antibody, V domains shown) VH: EVKLEESGGGLVQPGGSMKLSCVASGFSFSSYWMSWVRQSPEKGLDWVAEIRLRSDNYATHYAESVKGRFTISRDDSISRLYLQMNTLRAEDTGIYYCTWMTYWGQGTLVTVSA VL: QNVLTQSPAIMSASPGEKVTMSCSASSSVTYMFWYQLKPESSPRLLIYDTSNLASGVPVRFSGSGSGTSYSLTISRMEAEDAATYYCQEWSSYPLTFGAGTKLDLKR	–	–	–	–	–	–	–	–	0.08	1.26	0.07	1.6	1.5	< 1	1.6
HCV 208B-471 (antibody, V domains shown) VH: QGQLQQSGPVLVKPGASEILYCKTSGFTFSSTYISWLKQKPGQSLEWIAWIYAGTGATNYNQKFTGKAQLTVDASSNTAYMHFSGLTPEDSAIYYCAISGAGVYWGQGTLVTVSA VL: DVVMTQTPLSLPVSLGDQASISCRSSQSLLHSNGNTYLEWYLQKPGQSPNLLIYNVSNRFSGVPDRFSGSGSGTDFALKISRVGAEDLGVYYCFQGSHVPLTFGAGTKLELKR	–	–	–	–	–	–	–	–	1.62	0.11	0.08	< 1	< 1	< 1	< 1
HCV 208A-692 (antibody, V domains shown) VH: QGQMQQSGAELAKPGASVKLSCKTSGFTFSSSYISWLKQKPGQSLEWIAWIFAGTGNTNYNQKFTDKAQLTVDTSSSTAYMQLSSLTTEDSAIYYCAISGTGFTYWGQGTLVTVSA VL: EVLMTQSPLSLPVSLGDQASISCRSSQSLEHSNGNTYLEWFLQRPGQPPKLLIYKVSSRFSGVPDRFSGSGSGTDFTLKISRVEAEDLGVYYCFQGSHVPFTFGSGTKLAIKR	–	0.38	–	–	–	–	–	–	3.67	–	0.07	–	–	–	–
